Experimental data published in US20190358305A1.

Target: Recombinant human active MMP-3 (ab96555, Abcam) (human) (UniProt P08254)
Test: cell-based or functional assay

Chain of UniProt P08254 (P08254 100-477 limits assumed): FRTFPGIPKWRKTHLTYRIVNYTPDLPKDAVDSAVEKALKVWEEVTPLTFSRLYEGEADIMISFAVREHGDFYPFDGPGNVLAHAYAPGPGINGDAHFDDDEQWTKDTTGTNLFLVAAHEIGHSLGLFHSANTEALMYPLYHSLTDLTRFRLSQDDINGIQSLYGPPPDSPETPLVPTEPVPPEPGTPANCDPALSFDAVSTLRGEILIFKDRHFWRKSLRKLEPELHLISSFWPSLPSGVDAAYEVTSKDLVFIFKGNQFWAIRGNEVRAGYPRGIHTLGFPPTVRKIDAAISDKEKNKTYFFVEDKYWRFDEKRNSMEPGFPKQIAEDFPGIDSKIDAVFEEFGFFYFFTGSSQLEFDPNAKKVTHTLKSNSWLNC

Recombinant human active TIMP-1 (ab82104, Abcam) (from UniProt P01033 24-207)
TEER reduction of HTM monolayers over 24 h: 10 ng/ml active MMP-3 against MMP-3 inactivated by incubation with TIMP-1: 4.29 Ohm·cm^2
TEER reduction of SCEC monolayers over 24 h: 10 ng/ml active MMP-3 against MMP-3 inactivated by incubation with TIMP-1: 5.62 Ohm·cm^2
increase in paracellular flux (Papp) of 70 kDa FITC-dextran through HTM monolayers: active MMP-3 against TIMP-1-inactivated MMP-3: 4e-05 ×10⁻⁶ cm/s
increase in paracellular flux (Papp) of 70 kDa FITC-dextran through SCEC monolayers: active MMP-3 against TIMP-1-inactivated MMP-3: 0.00014 ×10⁻⁶ cm/s
